{"source": "patent US20170183667A1", "about": "(ANAEROPHARMA SCIENCE, published 2017)", "key": {"[1]": {"target": "T1, Recombinant Mouse PD-1 Fc Chimera (R&D Systems) (mouse, UniProt Q02242 25-167)", "T1 construct": "Bought reagent; also called mPD-1; Fc part of the bought chimera not given, not described", "T1 sequence (looked up)": "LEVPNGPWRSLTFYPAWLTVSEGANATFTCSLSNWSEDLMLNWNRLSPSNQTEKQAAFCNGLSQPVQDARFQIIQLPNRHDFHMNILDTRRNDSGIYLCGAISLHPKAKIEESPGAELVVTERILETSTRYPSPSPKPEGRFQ", "test": "ELISA, mPD-1 Fc chimera immobilised, scFv 1000 ng/mL", "protocol": "(§1) After the solution was removed, 350 μL of 1×PBS was dispensed and the solution was removed. This operation was repeated three times to carry out washing. In the above plates, 350 μL of a 1% BSA solution was dispensed and incubated at room temperature for 2 hours to perform blocking. After the solution was removed, 350 μL of 1×PBS was dispensed and the solution was removed. This operation was repeated three times to carry out washing.\n(§2) The anti-PD-1-3 scFv antibody purified from a bacterium of the genus Bifidobacterium was diluted with a signal enhancing reagent (Signal Enhancer HIKARI, manufactured by Nacalai Tesque) to prepare solutions having a concentration of 1000 ng/mL, 100 ng/mL and 10 ng/mL. Each solution (100 μL) was dispensed in the plates to which blocking treatment was already applied. […] To blank wells, a signal enhancing reagent (100 μL) alone was dispensed. After the plates were sealed and incubated at room temperature for 2 hours, immobilized mPD-1 was allowed to react with the anti-PD-1-3 scFv antibody. After the solution was removed, 350 μL of 1×PBS was dispensed and the solution was removed. This operation was repeated three times to carry out washing.\n(§3) Absorbance at 450 nm was measured, whereas absorbance at 570 nm was measured as a control."}, "[2]": {"target": "T2, Recombinant Human PD-1 Fc Chimera (R&D Systems) (human, UniProt Q15116 25-167)", "T2 construct": "Bought reagent; also called hPD-1; Fc part of the bought chimera not given, not described", "T2 sequence (Q15116 25-167, change not shown)": "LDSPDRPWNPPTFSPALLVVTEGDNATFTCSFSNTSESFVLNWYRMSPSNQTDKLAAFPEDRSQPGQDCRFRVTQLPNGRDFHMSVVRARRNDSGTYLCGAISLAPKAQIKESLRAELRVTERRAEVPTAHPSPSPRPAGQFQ", "test": "ELISA, hPD-1 Fc chimera immobilised, scFv 1000 ng/mL", "protocol": "(§4) After the solution was removed, 350 μL of 1×PBS was dispensed and the solution was removed. This operation was repeated three times to carry out washing. In the above plates, 350 μL of a 1% BSA solution was dispensed and incubated at room temperature for 2 hours to carry out blocking. After removing the solution, 350 μL of 1×PBS was dispensed and the solution was removed. This operation was repeated three times to carry out washing.\n(§5) Each solution (100 μL) was dispensed in the plates to which blocking treatment was already applied. […] To a blank well, a signal enhancing reagent (100 μL) alone was dispensed. After the plates were sealed and incubated at room temperature for 2 hours, immobilized hPD-1 was allowed to react with each of the scFv antibodies. After the solution was removed, 350 μL of 1×PBS was dispensed and the solution was removed. This operation was repeated three times to carry out washing.\n(§6) This solution (200 μL) was dispensed in the plates. The plates were sealed and incubated at room temperature for 20 minutes. […] Absorbance at 450 nm was measured, whereas absorbance at 570 nm was measured as a control."}, "[3]": {"target": "T2, Recombinant Human PD-1 Fc Chimera (R&D …)", "test": "ELISA, hPD-1 Fc chimera immobilised, scFv 100 ng/mL", "protocol": "as §4, §5, §6"}, "[4]": {"target": "T1, Recombinant Mouse PD-1 Fc Chimera (R&D …)", "test": "ELISA, mPD-1 Fc chimera immobilised, scFv 10 ng/mL", "protocol": "as §1, §2, §3"}, "[5]": {"target": "T1, Recombinant Mouse PD-1 Fc Chimera (R&D …)", "test": "ELISA, mPD-1 Fc chimera immobilised, scFv 100 ng/mL", "protocol": "as §1, §2, §3"}, "[6]": {"target": "T2, Recombinant Human PD-1 Fc Chimera (R&D …)", "test": "ELISA, hPD-1 Fc chimera immobilised, scFv 1 ng/mL", "protocol": "as §4, §5, §6"}, "[7]": {"target": "T2, Recombinant Human PD-1 Fc Chimera (R&D …)", "test": "ELISA, hPD-1 Fc chimera immobilised, scFv 10 ng/mL", "protocol": "as §4, §5, §6"}, "[8]": {"target": "T3, Recombinant Human CTLA-4-Fc Chimera, carrier-free (BioLegend) (human, UniProt P16410 36-161)", "T3 construct": "Bought reagent; also called hCTLA-4; Fc part of the bought chimera not given, not described", "T3 sequence (looked up)": "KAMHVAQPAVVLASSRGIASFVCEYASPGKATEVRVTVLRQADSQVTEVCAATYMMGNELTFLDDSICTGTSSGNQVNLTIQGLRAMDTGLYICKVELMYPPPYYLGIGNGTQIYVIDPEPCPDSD", "test": "ELISA, hCTLA-4-Fc chimera immobilised"}}}
{"binder": "anti-PD-1-2 scFv antibody purified from Bifidobacterium longum 105-A/pHuSP7L20-scFv-PD-1-2 strain (scFv, also called anti-human PD-1 antibody) scFv: DSAQTSAVVSSRSFPKASSVMQVQLQESGPGLVKPSQSLSLTCTVTGHSITSDYAWNWIRQFPGDKLEWMGYISYSGYTTYNPSLKSRVSITRDTSKNQFFLQLNSVTTEDTATYFCARDLDYGPWFAYWGQGTTVTVSSGGGGSGGGGSGGGGSDIQMTQSPASLSASVGETVTLTCRASENIHNYLAWYQQKQGKSPQLLVYNVKTLADGVPSRFSGSGSGTQYSLKINSLQPEDFGSYYCQHFWSSPWTFGGGTKLEIKRHHHHHH", "values": [{"measurement": "absorbance 450 nm (570 nm as control)", "setting": "[1]", "result": 0.014}, {"measurement": "absorbance 450 nm (570 nm as control)", "setting": "[2]", "result": 2.82}, {"measurement": "absorbance 450 nm (570 nm as control)", "setting": "[3]", "result": 3.06}, {"measurement": "absorbance 450 nm (570 nm as control)", "setting": "[4]", "result": 0.075}, {"measurement": "absorbance 450 nm (570 nm as control)", "setting": "[5]", "result": -0.01}, {"measurement": "absorbance 450 nm (570 nm as control)", "setting": "[6]", "result": 0.058}, {"measurement": "absorbance 450 nm (570 nm as control)", "setting": "[7]", "result": 0.912}]}
{"binder": "anti-CTLA-4-1 scFv antibody purified from Bifidobacterium longum 105-A/pHuSP7L20-scFv-CTLA-4-1 strain (scFv) scFv: DSAQTSAVVSSRSFPKASSVQVQLVESGGGVVQPGRSLRLSCAASGFTFSSYGMHWVRQAPGKGLEWVAVIWYDGSNKYYADSVKGRFTISRDNSKNTLYLQMNSLRAEDTAVYYCARDPRGATLYYYYYGMDVWGQGTTVTVSSGGGGSGGGGSGGGGSDIQMTQSPSSLSASVGDRVTITCRASQSINSYLDWYQQKPGKAPKLLIYAASSLQSGVPSRFSGSGSGTDFTLTISSLQPEDFATYYCQQYYSTPFTFGPGTKVEIKHHHHHH", "values": [{"measurement": "absorbance 450 nm (570 nm as control)", "setting": "[2]", "result": -0.038}, {"measurement": "absorbance 450 nm (570 nm as control)", "setting": "[3]", "result": -0.117}, {"measurement": "absorbance 450 nm (570 nm as control)", "setting": "[6]", "result": -0.092}, {"measurement": "absorbance 450 nm (570 nm as control)", "setting": "[7]", "result": -0.106}]}
{"binder": "anti-PD-1-3 scFv antibody purified from Bifidobacterium longum 105-A/pHuSP7L20-scFv-PD-1-3 strain (scFv, also called anti-mouse PD-1 scFv antibody; mPD-1 scFv) scFv: DSAQTSAVVSSRSFPKASSVMEVRLLESGGGLVKPEGSLKLSCVASGFTFSDYFMSWVRQAPGKGLEWVAHIYTKSYNYATYYSGSVKGRFTISRDDSRSMVYLQMNNLRTEDTATYYCTRDGSGYPSLDFWGQGTQVTVSSGGGGSGGGGSGGGGSYELTQPPSASVNVGETVKITCSGDQLPKYFADWFHQRSDQTILQVIYDDNKRPSGIPERISGSSSGTTATLTIRDVRAEDEGDYYCFSGYVDSDSKLYVFGSGTQLTVLGHHHHHH", "values": [{"measurement": "absorbance 450 nm (570 nm as control)", "setting": "[1]", "result": 3.11}, {"measurement": "binding result", "setting": "[8]", "result": "no binding (tested: up to 1000 ng/mL)"}, {"measurement": "absorbance 450 nm (570 nm as control)", "setting": "[4]", "result": 0.312}, {"measurement": "absorbance 450 nm (570 nm as control)", "setting": "[5]", "result": 0.561}]}
